Results reported in article PMC10501992, “How Pol α-primase is targeted to replisomes to prime eukaryotic DNA replication” (Molecular Cell, 2023).
Each block holds one binder with its values, some of them ahead of it.

Key:
Assay in all cases: cryo-EM structure; human replisome: 150 nM CMG on fork DNA (60 nt or 15 nt 5′ flap) with 1.5-fold molar excess of AND-1, TIMELESS-TIPIN, CLASPIN and Pol α-primase; 25 mM HEPES-NaOH pH 7.6, 150 mM NaOAc, 0.5 mM TCEP, 500 μM AMP-PNP, 10 mM Mg(OAc)2, on ice; 10-30% glycerol gradient with glutaraldehyde and BS3 cross-linkers
Conditions in all cases: both partners purified
[1] = target: T1, human CMG (CDC45-MCM-GINS) replicative helicase (human, UniProt O75419 1-566; P49736 1-904; P25205 1-808; P33991 1-863; P33992 1-734; Q14566 …)
T1 construct: CDC45, human; MCM2, human; MCM3, human; MCM4, human; MCM5, human; MCM6, human; MCM7, human; PSF1, subunit of GINS, human; PSF2, subunit of GINS, human; PSF3, subunit of GINS, human; SLD5, subunit of GINS, human; the subunits are named in the methods for the MCM3-4A form, which was made as the wild type; copies: + + + + + + + + + +

[2] = target: T2, POLA1 (human Pol α catalytic subunit) (human, UniProt P09884 1-1462)
T2 construct: POLA1, human; modelled residues 1279-1445 and 1448-1458 (CTD); stood in the assay as a subunit of m18; also called POLA1CTD; POLA1_(exo-cat)
T2 sequence: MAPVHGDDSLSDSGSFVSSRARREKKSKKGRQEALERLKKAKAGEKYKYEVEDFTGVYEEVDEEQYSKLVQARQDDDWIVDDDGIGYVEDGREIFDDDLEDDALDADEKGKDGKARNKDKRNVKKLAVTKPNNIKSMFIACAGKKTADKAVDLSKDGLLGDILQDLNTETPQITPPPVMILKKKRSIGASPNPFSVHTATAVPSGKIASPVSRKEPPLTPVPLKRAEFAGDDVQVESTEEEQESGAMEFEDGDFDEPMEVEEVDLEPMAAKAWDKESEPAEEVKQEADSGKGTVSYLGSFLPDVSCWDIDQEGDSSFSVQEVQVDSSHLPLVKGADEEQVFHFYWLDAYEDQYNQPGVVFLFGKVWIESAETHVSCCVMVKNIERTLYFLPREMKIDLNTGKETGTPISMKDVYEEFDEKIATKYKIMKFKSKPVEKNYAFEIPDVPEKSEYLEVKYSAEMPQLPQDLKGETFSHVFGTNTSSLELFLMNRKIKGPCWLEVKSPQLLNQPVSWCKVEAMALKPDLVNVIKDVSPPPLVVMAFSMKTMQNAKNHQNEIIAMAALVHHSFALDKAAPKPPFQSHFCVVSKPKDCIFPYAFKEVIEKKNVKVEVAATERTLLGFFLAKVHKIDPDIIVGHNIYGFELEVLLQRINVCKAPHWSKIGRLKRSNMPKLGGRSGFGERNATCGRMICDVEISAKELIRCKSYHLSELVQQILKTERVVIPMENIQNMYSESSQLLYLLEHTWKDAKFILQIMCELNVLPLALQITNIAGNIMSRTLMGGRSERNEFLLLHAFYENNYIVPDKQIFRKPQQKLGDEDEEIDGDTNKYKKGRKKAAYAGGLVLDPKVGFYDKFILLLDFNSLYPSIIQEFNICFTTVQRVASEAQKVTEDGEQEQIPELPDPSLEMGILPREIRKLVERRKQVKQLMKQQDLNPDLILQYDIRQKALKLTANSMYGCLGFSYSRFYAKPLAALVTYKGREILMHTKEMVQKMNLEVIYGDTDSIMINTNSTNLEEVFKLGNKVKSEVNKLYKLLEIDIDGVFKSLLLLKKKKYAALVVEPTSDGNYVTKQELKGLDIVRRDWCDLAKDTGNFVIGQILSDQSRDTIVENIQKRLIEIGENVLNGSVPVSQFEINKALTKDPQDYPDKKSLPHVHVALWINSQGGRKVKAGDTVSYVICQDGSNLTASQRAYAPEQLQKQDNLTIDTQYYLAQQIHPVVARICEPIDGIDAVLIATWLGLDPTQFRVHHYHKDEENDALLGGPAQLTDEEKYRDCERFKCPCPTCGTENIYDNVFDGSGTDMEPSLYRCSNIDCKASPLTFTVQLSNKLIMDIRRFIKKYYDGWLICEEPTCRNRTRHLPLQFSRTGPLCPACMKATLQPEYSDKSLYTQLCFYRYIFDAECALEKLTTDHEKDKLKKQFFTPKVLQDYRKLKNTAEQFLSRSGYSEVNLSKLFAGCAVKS

[3] = target: T3, PRIM2 (human primase accessory subunit) (human, UniProt P49643 1-509)
T3 construct: PRIM2, human; modelled residues 1-5 (N terminus) and 17-252 (NTD); stood in the assay as a subunit of m18; also called PRIM2NTD; PRIM2_(Nterm)
T3 sequence: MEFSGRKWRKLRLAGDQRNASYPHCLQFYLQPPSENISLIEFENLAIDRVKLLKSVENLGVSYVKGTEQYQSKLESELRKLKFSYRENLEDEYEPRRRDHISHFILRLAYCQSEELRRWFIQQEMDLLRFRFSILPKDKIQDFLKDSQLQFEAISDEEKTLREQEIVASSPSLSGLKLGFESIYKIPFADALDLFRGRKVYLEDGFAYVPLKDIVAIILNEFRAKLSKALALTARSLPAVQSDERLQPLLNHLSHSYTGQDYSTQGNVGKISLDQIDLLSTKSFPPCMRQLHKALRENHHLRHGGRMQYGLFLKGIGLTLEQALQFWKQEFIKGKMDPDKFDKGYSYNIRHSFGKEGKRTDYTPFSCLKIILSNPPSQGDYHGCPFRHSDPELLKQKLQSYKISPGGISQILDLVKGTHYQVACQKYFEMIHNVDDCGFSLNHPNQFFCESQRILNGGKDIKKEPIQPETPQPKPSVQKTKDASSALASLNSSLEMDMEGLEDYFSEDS

- binding result [1]: binds
B1: TIMELESS-TIPIN (human) (complex)
chain 1: MDLHMMNCELLATCSALGYLEGDTYHKEPDCLESVKDLIRYLRHEDETRDVRQQLGAAQILQSDLLPILTQHHQDKPLFDAVIRLMVNLTQPALLCFGNLPKEPSFRHHFLQVLTYLQAYKEAFASEKAFGVLSETLYELLQLGWEERQEEDNLLIERILLLVRNILHVPADLDQEKKIDDDASAHDQLLWAIHLSGLDDLLLFLASSSAEEQWSLHVLEIVSLMFRDQNPEQLAGVGQGRLAQERSADFAELEVLRQREMAEKKTRALQRGNRHSRFGGSYIVQGLKSIGERDLIFHKGLHNLRNYSSDLGKQPKKVPKRRQAARELSIQRRSALNVRLFLRDFCSEFLENCYNRLMGSVKDHLLREKAQQHDETYYMWALAFFMAFNRAASFRPGLVSETLSVRTFHFIEQNLTNYYEMMLTDRKEAASWARRMHLALKAYQELLATVNEMDISPDEAVRESSRIIKNNIFYVMEYRELFLALFRKFDERCQPRSFLRDLVETTHLFLKMLERFCRSRGNLVVQNKQKKRRKKKKKVLDQAIVSGNVPSSPEEVEAVWPALAEQLQCCAQNSELSMDSVVPFDAASEVPVEEQRAEAMVRIQDCLLAGQAPQALTLLRSAREVWPEGDVFGSQDISPEEEIQLLKQILSAPLPRQQGPEERGAEEEEEEEEEEEEELQVVQVSEKEFNFLDYLKRFACSTVVRAYVLLLRSYQQNSAHTNHCIVKMLHRLAHDLKMEALLFQLSVFCLFNRLLSDPAAGAYKELVTFAKYILGKFFALAAVNQKAFVELLFWKNTAVVREMTEGYGSLDDRSSSRRAPTWSPEEEAHLRELYLANKDVEGQDVVEAILAHLNTVPRTRKQIIHHLVQMGLADSVKDFQRKGTHIVLWTGDQELELQRLFEEFRDSDDVLGHIMKNITAKRSRARIVDKLLALGLVAERRELYKKRQKKLASSILPNGAESLKDFCQEDLEEEENLPEEDSEEEEEGGSEAEQVQGSLVLSNENLGQSLHQEGFSIPLLWLQNCLIRAADDREEDGCSQAVPLVPLTEENEEAMENEQFQQLLRKLGVRPPASGQETFWRIPAKLSPTQLRRAAASLSQPEEEQKLQPELQPKVPGEQGSDEEHCKEHRAQALRALLLAHKKKAGLASPEEEDAVGKEPLKAAPKKRQLLDSDEEQEEDEGRNRAPELGAPGIQKKKRYQIEDDEDD
chain 2: MLEPQENGVIDLPDYEHVEDETFPPFPPPASPERQDGEGTEPDEESGNGAPVRVPPKRTVKRNIPKLDAQRLISERGLPALRHVFDKAKFKGKGHEAEDLKMLIRHMEHWAHRLFPKLQFEDFIDRVEYLGSKKEVQTCLKRIRLDLPILHEDFVSNNDEVAENNEHDVTSTELDPFLTNLSESEMFASELSRSLTEEQQQRIERNKQLALERRQAKLLSNSQTLGNDMLMNTPRAHTVEEVNTDEDQKEESNGLNEDILDNPCNDAIANTLNEEETLLDQSFKNVQQQLDATSRNITEAR
notes: TIPIN, human; source: purified (Strep-Tactin XT resin, TEV protease, HiTrap Q HP, Superdex 200)

- binding result [2]: binds
B2: POLA2 (human Pol α accessory subunit) (natural protein)
chain: MSASAQQLAEELQIFGLDCEEALIEKLVELCVQYGQNEEGMVGELIAFCTSTHKVGLTSEILNSFEHEFLSKRLSKARHSTCKDSGHAGARDIVSIQELIEVEEEEEILLNSYTTPSKGSQKRAISTPETPLTKRSVSTRSPHQLLSPSSFSPSATPSQKYNSRSNRGEVVTSFGLAQGVSWSGRGGAGNISLKVLGCPEALTGSYKSMFQKLPDIREVLTCKIEELGSELKEHYKIEAFTPLLAPAQEPVTLLGQIGCDSNGKLNNKSVILEGDREHSSGAQIPVDLSELKEYSLFPGQVVIMEGINTTGRKLVATKLYEGVPLPFYQPTEEDADFEQSMVLVACGPYTTSDSITYDPLLDLIAVINHDRPDVCILFGPFLDAKHEQVENCLLTSPFEDIFKQCLRTIIEGTRSSGSHLVFVPSLRDVHHEPVYPQPPFSYSDLSREDKKQVQFVSEPCSLSINGVIFGLTSTDLLFHLGAEEISSSSGTSDRFSRILKHILTQRSYYPLYPPQEDMAIDYESFYVYAQLPVTPDVLIIPSELRYFVKDVLGCVCVNPGRLTKGQVGGTFARLYLRRPAADGAERQSPCIAVQVVRI
notes: POLA2, human; stood in the assay as a subunit of m18

- binding result [3]: binds
B3: PRIM1 (human primase catalytic subunit) (natural protein)
chain: METFDPTELPELLKLYYRRLFPYSQYYRWLNYGGVIKNYFQHREFSFTLKDDIYIRYQSFNNQSDLEKEMQKMNPYKIDIGAVYSHRPNQHNTVKLGAFQAQEKELVFDIDMTDYDDVRRCCSSADICPKCWTLMTMAIRIIDRALKEDFGFKHRLWVYSGRRGVHCWVCDESVRKLSSAVRSGIVEYLSLVKGGQDVKKKVHLSEKIHPFIRKSINIIKKYFEEYALVNQDILENKESWDKILALVPETIHDELQQSFQKSHNSLQRWEHLKKVASRYQNNIKNDKYGPWLEWEIMLQYCFPRLDINVSKGINHLLKSPFSVHPKTGRISVPIDLQKVDQFDPFTVPTISFICRELDAISTNEEEKEENEAESDVKHRTRDYKKTSLAPYVKVFEHFLENLDKSRKGELLKKSDLQKDF
notes: PRIM1, human; modelled residues 9-349 and 386-408; stood in the assay as a subunit of m18
